Target: URH1p riboside hydrolase from Saccharomyces cerevisiae (S. cerevisiae) (UniProt Q04179)
Test: AUC; sedimentation velocity, absorbance 280 nm, 45,000 rpm; samples kept at 4 °C for two weeks; 2.6, 5.2, 10.4 and 15.6 µM; monomer to disulphide-linked dimer

In the case of “URH1p riboside hydrolase from Saccharomyces cerevisiae (from UniProt Q04179 2-340) (enzyme)”, the ratio between monomeric and dimeric URH1p in the sample was 33% and the stoichiometry N was 2.

Source: publication PMC11241417
